Patent US20200239586A1 (LA TROBE UNIVERSITY, published 2020)
One block for each binder: values may come before it.

Columns and labels:
recombinant Fn14-Fc [1] = target: T1, recombinant Fn14-Fc (human, UniProt Q9NP84 28-77); test: SPR (ProteOn XPR36), mAb captured on anti-mouse IgG, Fn14-Fc analyte, Langmuir fit
T1 construct: also called native Fn14; not shown: Fc region (recognised by anti-human Fc)
Description: (§1) The interaction of mouse anti-Fn14 IgG monoclonal antibodies CRCBT-06-001 and CRCBT-06-002 with recombinant Fn14-Fc was measured using the Bio-Rad ProteOn XPR36 essentially as described by Nahshol et al., (2008). Briefly, a GLM ProteOn sensor chip was activated by flowing a mixture of 0.2 M EDC and 0.05 M sulpho-NHS over the chip (150 μl at 30 μl/min for 5 minutes). Rabbit anti-mouse IgG whole molecule (Sigma M-7023) was then coupled to the chip in the vertical orientation by flowing 150 μl of a 50 μg/ml solution in 10 mM acetate buffer (pH 4.5) at 30 μl/min. The remaining coupling sites were then deactivated by flowing 150 μl of 1 M ethanolamine-HCl (pH 8.5) at 30 μl/min. Mouse anti-Fn14 IgG monoclonal antibodies were then bound to the coupled anti-mouse IgG antibody by flowing 150 μl of 100 μg/ml IgG at 25 μl/min over a single channel of the sensor chip in the horizontal direction. […] PBS Tween 20 (0.005%) alone was passed over the remaining channel. Binding sensorgrams were collected and analyzed with the ProteOn Manager 2.1 XPR36 software using the Langmuir or bivalent analyte kinetic models to fit the data and determine the affinity constant KD.
(§2) A Bio-Rad ProteOn XPR36 was used to determine the affinity of mouse monoclonal anti-Fn14 antibodies CRCBT-06-001 and CRCBT-06-002 to recombinant Fn14-Fc. It is clear that both antibodies tested display a high on-rate and a low off-rate. The ProteOn software was used to fit a curve to the sensorgram based on a mathematical model, enabling the kinetics of the interaction (ka, Kd and KD) to be calculated. A number of models can be used to fit the curves to the sensorgram, essentially the models used for each sensorgram were used as they provided the best fit, as evident by the low Chi² value obtained for the residuals.

[2] = target: T2, Fn14 gene fragment RW95 on phage (human, UniProt Q9NP84 37-90); test: phage ELISA, Fn14 gene fragments on phage, CRCBT-06-001 wells versus blank wells
T2 construct: not shown: M13 pIII coat protein (gene fragment library in pHENH6)
T2 sequence: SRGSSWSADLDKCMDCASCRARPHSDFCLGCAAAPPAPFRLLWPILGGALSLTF

[3] = target: T3, Fn14 gene fragment RW131 on phage (human, UniProt Q9NP84 23-69); test: as above
T3 construct: not shown: M13 pIII coat protein (gene fragment library in pHENH6)
T3 chain: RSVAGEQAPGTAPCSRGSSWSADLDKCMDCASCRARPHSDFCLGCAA

[4] = target: T4, Fn14 gene fragment RW129 on phage (human, UniProt Q9NP84 32-74); test: as above
T4 construct: not shown: M13 pIII coat protein (gene fragment library in pHENH6)

[5] = target: T5, Fn14 gene fragment RW120 on phage (human, UniProt Q9NP84 31-74); test: as above
T5 construct: not shown: M13 pIII coat protein (gene fragment library in pHENH6)

[6] = target: T6, Fn14 gene fragment RW125 on phage (human, UniProt Q9NP84 31-74); test: as above
T6 construct: not shown: M13 pIII coat protein (gene fragment library in pHENH6)

[7] = target: T7, Fn14 gene fragment RW114 on phage (human, UniProt Q9NP84 31-70); test: as above
T7 construct: not shown: M13 pIII coat protein (gene fragment library in pHENH6)
T7 chain: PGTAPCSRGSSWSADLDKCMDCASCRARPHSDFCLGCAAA

recombinant Fn14-Fc [8] = target: T1, recombinant Fn14-Fc; test: SPR (ProteOn XPR36), mAb captured on anti-mouse IgG, Fn14-Fc analyte, bivalent analyte fit
Description: as §1, §2

T1 sequence (Q9NP84 28-77): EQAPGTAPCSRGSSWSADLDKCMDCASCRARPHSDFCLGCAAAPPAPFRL
T4 sequence (Q9NP84 32-74): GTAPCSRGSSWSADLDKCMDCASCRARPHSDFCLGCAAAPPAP

- Kd (recombinant Fn14-Fc [1]): 0.768 nM
- koff (recombinant Fn14-Fc [1]): 1.81e-05 s⁻¹
- kon (recombinant Fn14-Fc [1]): 23600 M⁻¹ s⁻¹
- binding result [2]: no binding
- binding result [3]: binds
- binding result [4]: binds
- binding result [5]: binds
- binding result [6]: binds
- binding result [7]: binds
B1: CRCBT-06-001 (antibody, IgG2b, V domains shown)
VH: QVQLQQSGGGLVQPGGSMKLSCIASGFTFSSYWMSWVRQSPEKGLEWVAEIRSKSDNYATHYAESVKGKFTISRDDSKSRFFLQMNNLRAEDTGIYYCSSTYADYFHYWGQGTDLTVSS
VL: DIVMTQTPASLAVSLGQRATISCRASQSVSTSTYSYMHWYQQKPGQPPKLLIKYASSLESGVPARFSGSGSGTDFTLNIHPVEEDDTATYYCQHSWEIPYTFGGGTKLEIKR

- Kd (recombinant Fn14-Fc [8]): 0.935 nM
- koff (recombinant Fn14-Fc [8]): 1.42e-05 s⁻¹
- kon (recombinant Fn14-Fc [8]): 15200 M⁻¹ s⁻¹
B2: CRCBT-06-002 (antibody, IgG1, V domains shown)
VH: EVKLQQSGGGLVQPGGSMKLSCVASGFTFSYYWMNWVRQSPEQGLEWIAEIRLQSNDYPTHYAESVKGRFTISRDDSKNSVYLQMNNLRPEDTGIYYCACRYADYFDHWGQGTTLTVSS
VL: DTVLTQSPASLVVSLGQRATISCRASQSVSTSDYSYIHWYQQKPGQPPKFLIKYASNRDSGVPARFSGSGSGTDFTLNIHPVEEDDTAIYYCQHSWEIPPTFGAGTKLELQR
